Measurements reported in publication PMC4620744.

How the values were obtained:
[1] = target: H2A-H2B^30-130 (S. cerevisiae) (UniProt P04911); assay: ITC
[2] = target: full-length H2A-H2B (S. cerevisiae) (UniProt P04911); assay: ITC
[3] = target: Fluorescein-Spt16 MBD (Spt16^965-990) (S. cerevisiae) (UniProt P32558); assay: fluorescence polarisation
[4] = target: full-length FACT (Spt16-Pob3 heterodimer) (S. cerevisiae) (UniProt P32558); assay: native gel or EMSA
[5] = target: full-length FACT (Spt16-Pob3 heterodimer) (S. cerevisiae) (UniProt P32558); assay: ITC
[6] = target: H2A-H2B^30-130 bearing H2B Y45A and M62A (S. cerevisiae) (UniProt P04911); assay: ITC
[7] = target: H2A-H2B^30-130 bearing H2B M62A (S. cerevisiae) (UniProt P04911); assay: ITC
[8] = target: H2A-H2B^30-130 bearing H2B Y45A (S. cerevisiae) (UniProt P04911); assay: ITC
[9] = target: full-length H2A-H2B (S. cerevisiae) (UniProt P04911); assay: fluorescence polarisation

How did the fold decrease in affinity against the unmutated peptide [1] turn out when “Spt16-MBD EDEE987-990AAAA (from UniProt P32558 965-990) (peptide)” was run?
The fold decrease in affinity against the unmutated peptide was 15 fold.

For “Spt16-MBD SEEE965-968AAAA (from UniProt P32558 965-990) (peptide)”, which fold decrease in affinity against the unmutated peptide [1] is on record?
The fold decrease in affinity against the unmutated peptide was 12 fold.

Which Kd [2] does the source give for Spt16-C (domain or fragment) here?
Its Kd is 800 nM.

And the stoichiometry N [2]?
Its stoichiometry N is 1.

How did the Kd [1] turn out when “Spt16 E968A (from UniProt P32558 965-990) (peptide)” was run?
The Kd was 5000 nM.

How did the Kd [1] turn out when “Pob3 D509A (from UniProt Q04636 505-529) (peptide)” was run?
Its Kd is 35000 nM.

With “full-length H2A-H2B (from UniProt P04911 1-132; P02293 1-131) (complex)” as the substance, how does the Kd [3] read?
The Kd was 2300 nM.

What about the apparent KD of one of two EMSA binding events [4] of the same substance?
Its apparent KD of one of two EMSA binding events is 100 nM.

And the apparent KD of the other of two EMSA binding events [4]?
The apparent KD of the other of two EMSA binding events was 150 nM.

And the stoichiometry N [4]?
The stoichiometry N was 2.

What about the KD of one of two independent binding sites [5] of the same substance?
The KD of one of two independent binding sites was 340 nM.

What about the KD of the other of two independent binding sites [5] of the same substance?
The KD of the other of two independent binding sites was 1620 nM.

And the stoichiometry N [5]?
Its stoichiometry N is 2.

What does the source list for “Spt16^958-990 (from UniProt P32558 958-990) (peptide)”?
fold decrease in binding against H2A-H2B^30-130 [6]: 42 fold; fold decrease in binding against H2A-H2B^30-130 [7]: 12 fold; fold decrease in binding against H2A-H2B^30-130 [8]: 25 fold

With “Spt16-MBD DES981-983AAA (from UniProt P32558 965-990) (peptide)” as the substance, how does the fold decrease in affinity against the unmutated peptide [1] read?
The fold decrease in affinity against the unmutated peptide was 10 fold.

Which IC50 [9] does the source give for “Pob3-MBD (Pob3^505-529) (from UniProt Q04636 505-529) (peptide)” here?
The IC50 was 15700 nM.

What about the Ki [9] of the same substance?
Its Ki is 1300 nM.

And the fold decrease in affinity against H2A-H2B^30-130 [6]?
The fold decrease in affinity against H2A-H2B^30-130 was 41 fold.

What about the fold decrease in affinity against H2A-H2B^30-130 [7] of the same substance?
The fold decrease in affinity against H2A-H2B^30-130 was 9 fold.

And the fold decrease in affinity against H2A-H2B^30-130 [8]?
Its fold decrease in affinity against H2A-H2B^30-130 is 12 fold.

Which fold decrease in binding against the unmutated peptide [1] does the source give for “Pob3-MBD F512A (from UniProt Q04636 505-529) (peptide)” here?
The fold decrease in binding against the unmutated peptide was greater than 100 fold.

Which fold decrease in binding against the unmutated peptide [1] does the source give for “Pob3-MBD DNDAD517-521AAAAA (from UniProt Q04636 505-529) (peptide)” here?
The fold decrease in binding against the unmutated peptide was 17 fold.

With “Spt16-MBD (Spt16^965-990) (from UniProt P32558 965-990) (peptide)” as the substance, how does the IC50 [9] read?
The IC50 was 21100 nM.

And the Ki [9]?
The Ki was 2300 nM.

Which fold decrease in affinity against the unmutated peptide [1] does the source give for “Spt16-MBD SEDD975-978AAAA (from UniProt P32558 965-990) (peptide)” here?
The fold decrease in affinity against the unmutated peptide was 20 fold.

For “Spt16-MBD Y972A (from UniProt P32558 965-990) (peptide)”, which fold decrease in binding against the unmutated peptide [1] is on record?
The fold decrease in binding against the unmutated peptide was 48 fold.

Which fold decrease in binding against the unmutated peptide [1] does the source give for “Pob3-MBD DED509-511AAA (from UniProt Q04636 505-529) (peptide)” here?
Its fold decrease in binding against the unmutated peptide is 38 fold.
